For two substances, reduction of the p53 level expressed from a transfected construct in Saos-2 cells (Western blot, relative to alpha-tubulin) and MDM2 half-life after cycloheximide (Western blot); approximately 15 min without TSG101 co-expression results are on record in patent publication US20030138839A1.

The target in the test is human MDM2 (human) (UniProt Q00987). The test can be described thus: cell-based or functional assay.
Chain of human MDM2 (human) (Q00987 whole entry): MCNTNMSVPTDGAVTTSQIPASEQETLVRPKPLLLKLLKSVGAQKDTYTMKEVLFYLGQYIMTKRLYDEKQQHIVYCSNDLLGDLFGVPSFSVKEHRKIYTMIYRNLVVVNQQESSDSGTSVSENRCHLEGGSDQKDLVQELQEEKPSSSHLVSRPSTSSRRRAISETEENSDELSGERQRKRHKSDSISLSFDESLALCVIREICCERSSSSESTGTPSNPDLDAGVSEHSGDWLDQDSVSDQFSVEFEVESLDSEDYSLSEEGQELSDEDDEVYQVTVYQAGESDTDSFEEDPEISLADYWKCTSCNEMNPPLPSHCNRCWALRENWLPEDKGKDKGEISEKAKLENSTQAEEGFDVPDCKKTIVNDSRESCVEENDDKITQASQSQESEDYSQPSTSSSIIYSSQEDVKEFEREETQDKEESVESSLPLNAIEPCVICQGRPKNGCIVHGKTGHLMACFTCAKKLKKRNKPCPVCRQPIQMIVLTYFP

HA-tagged human TSG101 registered a reduction of the p53 level expressed from a transfected construct in Saos-2 cells (Western blot, relative to alpha-tubulin) of 70%. Consider human TSG101 protein, for which the MDM2 half-life after cycloheximide (Western blot); approximately 15 min without TSG101 co-expression turned out to be 28 min.
